{
  "source": "paper PMC2901902",
  "about": "(Nature, 2010)",
  "binders": {"B1": {"name": "histone H3 peptide acetylated at lysine 14 (residues 1–18) (peptide, UniProt P68431 2-19, looked up)", "peptide": "ARTKQTARKSTGGK(Ac)APRK"}, "B2": {"name": "histone H4K16ac peptide (residues 9–23) (peptide, UniProt P62805 10-24, looked up)", "peptide": "GLGKGGAK(Ac)RHRKVLR"}, "B3": {"name": "unmodified histone H3 peptide (residues 1–18) (peptide, UniProt P68431 2-19, looked up)", "peptide": "ARTKQTARKSTGGKAPRK"}},
  "key": {"[1]": {"molecular_target": "DPF3b PHD12 with Ala mutation of Glu315 (human, UniProt Q92784-1 261-372, Ala mutation of Glu315)", "assay": "ITC"}, "[2]": {"molecular_target": "T1, DPF3b PHD12 with Ala mutation of Asp335 (human, UniProt Q92784-1 261-372, Ala mutation of Asp335)", "T1 sequence (looked up)": "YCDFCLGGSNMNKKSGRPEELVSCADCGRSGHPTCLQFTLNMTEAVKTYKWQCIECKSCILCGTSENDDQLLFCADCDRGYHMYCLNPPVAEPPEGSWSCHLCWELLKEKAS", "assay": "ITC"}, "[3]": {"molecular_target": "human DPF3b tandem PHD finger (residues 261–372) (human, UniProt Q92784-1 261-372)", "assay": "NMR solution structure"}, "DPF3b PHD12 D263A": {"molecular_target": "DPF3b PHD12 D263A (human, UniProt Q92784-1 261-372, D263A)", "assay": "ITC"}, "DPF3b PHD12 F264A": {"molecular_target": "DPF3b PHD12 F264A (human, UniProt Q92784-1 261-372, F264A)", "assay": "ITC"}},
  "note": "Where no end group is shown, it is not given here.",
  "data": [
    {"binder": "B1", "values": [
      {"measurement": "binding result", "setting": "[1]", "value": "binds"},
      {"measurement": "binding result", "setting": "[2]", "value": "binds"}
    ]},
    {"binder": "B2", "values": [
      {"measurement": "binding result", "setting": "[3]", "value": "binds"}
    ]},
    {"binder": "B3", "values": [
      {"measurement": "binding result", "setting": "DPF3b PHD12 D263A", "value": "binds"},
      {"measurement": "binding result", "setting": "DPF3b PHD12 F264A", "value": "binds"}
    ]}
  ]
}
